Laboratory results: publication PMC9314101

Biological target: PtrMYB074 (Populus trichocarpa, UniProt B9IEX5 1-371)
Assay: EMSA

B1: PtrbHLH186 promoter W-box probe (dsDNA)
DNA 1: CTATAGTTTGACTGTA
DNA 2: TACAGTCAAACTATAG
- binding result: no binding
